Source: article PMC8309162, “Identification and Functional Characterization of Genes Encoding Phenylacetaldehyde Reductases That Catalyze the Last Step in the Biosynthesis of Hydroxytyrosol in Olive” (Plants, 2021)

System: T1, O=CCc1ccc(O)c(O)c1
T1 construct: tag cleavage not mentioned
Experiment: HPLC quantification of hydroxytyrosol formed
Assay type: biochemical, Olea europaea
Conditions: 0.25-8 mM substrate, Michaelis-Menten, standard assay 5 mM NADPH, 50 mM Tris-HCl pH 8.0, 30 °C (pH of the kinetic run not stated; optimum pH 6.5)

OePAR1.1 (Olea europaea), sequence (chain, as listed by the source): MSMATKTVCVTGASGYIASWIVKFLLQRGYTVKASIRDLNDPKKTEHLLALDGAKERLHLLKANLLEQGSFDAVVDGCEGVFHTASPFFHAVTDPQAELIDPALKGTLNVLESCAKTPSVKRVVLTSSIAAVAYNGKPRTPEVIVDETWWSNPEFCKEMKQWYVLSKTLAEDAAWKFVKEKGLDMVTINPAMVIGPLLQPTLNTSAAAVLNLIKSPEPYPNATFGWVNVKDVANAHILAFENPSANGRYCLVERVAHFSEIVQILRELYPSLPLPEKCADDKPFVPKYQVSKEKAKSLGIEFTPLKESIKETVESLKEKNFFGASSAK
OePAR1.2 (Olea europaea), sequence (chain, as listed by the source): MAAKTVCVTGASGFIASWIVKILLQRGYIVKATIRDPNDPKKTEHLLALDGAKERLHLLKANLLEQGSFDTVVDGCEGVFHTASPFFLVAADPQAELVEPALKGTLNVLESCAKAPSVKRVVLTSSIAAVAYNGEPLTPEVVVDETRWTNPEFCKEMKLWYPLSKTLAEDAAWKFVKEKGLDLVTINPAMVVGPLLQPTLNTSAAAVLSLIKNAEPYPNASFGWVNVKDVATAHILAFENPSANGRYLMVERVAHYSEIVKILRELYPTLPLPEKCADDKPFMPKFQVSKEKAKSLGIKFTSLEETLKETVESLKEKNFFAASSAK

Substance	Km
OePAR1.1 (Olea europaea)	600 µM
OePAR1.2 (Olea europaea)	800 µM
